{
  "source": "paper PMC9097884",
  "about": "(2022)",
  "binders": {"B1": {"name": "87G7 human monoclonal antibody (recombinant human IgG1/kappa) (antibody, V domains shown)", "VH": "EVQLLESGGGLVQPGGSLRLSCVASGFTFSSYVMSWVRQAPGKGLEWVAAISGSGGNTYYADSVKGRFTISRDNSKNTLYLQMNSLRAEDTAVYYCAKEGTYYYGSGSFWGQGTLVTVSS", "VL": "EIVLTQSPATLSLSPGERATLSCRASQSFHNYLAWYQQKPGRAPRLLIFDASNRATGIPARFSGSGSGTDFTLTISSLEPEDFAVYYCQQRFNWPLTFGGGTKVEIK"}},
  "target": "SARS-CoV-2 S1 (residues 1-682, Wuhan-Hu-1) (SARS-CoV-2 (Wuhan-Hu-1 strain), UniProt P0DTC2 14-682)",
  "test": "BLI",
  "data": [
    {"binder": "B1", "values": [
      {"measurement": "Kd", "value": 2.89, "unit": "nM"}
    ]}
  ]
}
